Source: the Human Domainome abundance scans (Beltran et al. 2025)
± gives the uncertainty stated by the source.

B1: Intersectin-1, residues 1156 to 1213; numbered along this chain, Q15811 (parent)
chain: AVCQVIGMYDYTAQNDDELAFNKGQIINVLNKEDPDWWKGEVNGQVGLFPSNYVKLTT

Variants of: B1
Test: abundance fitness (aPCA) (normalised: wild type 0, dead -1); higher = more abundant; growth selection in yeast, the domain comes from the species named
Details: Homo sapiens

Abundance fitness: each site, then its substitutions
L56: N -0.149 ± 0.22, A 0.08 ± 0.093, V 0.006 ± 0.094, H -0.334 ± 0.24, D -0.106 ± 0.15, W -0.405 ± 0.11, S 0.083 ± 0.087, C 0.266 ± 0.13, I 0.069 ± 0.2, Q -0.151 ± 0.11
V54: W -0.762 ± 0.14, T -0.065 ± 0.14, L -0.854 ± 0.14, P -0.842 ± 0.17, R -0.684 ± 0.094, K -0.906 ± 0.24, S -0.874 ± 0.12, M -0.755 ± 0.27, C -0.367 ± 0.12, F -0.806 ± 0.25, H -0.767 ± 0.23, N -0.758 ± 0.21, E -0.931 ± 0.33, G -0.836 ± 0.12, I -0.773 ± 0.16, D -0.943 ± 0.31, A -0.546 ± 0.11, Q -0.904 ± 0.22, Y -0.766 ± 0.26
K55: S -0.004 ± 0.084, M 0.024 ± 0.16, R 0.067 ± 0.084, Y -0.427 ± 0.15, H -0.431 ± 0.18, I -0.325 ± 0.21, F -0.614 ± 0.17, T -0.225 ± 0.11, Q -0.177 ± 0.16, N -0.456 ± 0.17, A -0.146 ± 0.1, L -0.318 ± 0.089, D -0.513 ± 0.15, W -0.678 ± 0.17, P -0.797 ± 0.16, C -0.098 ± 0.15
T58: R 0.062 ± 0.26, L -0.187 ± 0.41, V -0.113 ± 0.32, S -0.144 ± 0.16, G 0.053 ± 0.22, I -0.587 ± 0.4, P -0.09 ± 0.2, N -0.233 ± 0.26, A -0.315 ± 0.16
T57: C -0.115 ± 0.12, K -0.024 ± 0.21, I -0.13 ± 0.14, V -0.06 ± 0.089, Y -0.063 ± 0.15, N -0.028 ± 0.17, W -0.167 ± 0.12, D -0.055 ± 0.15, Q 0.028 ± 0.15, A -0.059 ± 0.083, R -0.131 ± 0.078, H -0.003 ± 0.14, E -0.519 ± 0.16, S -0.174 ± 0.09, L -0.116 ± 0.11, M -0.009 ± 0.15, F 0.086 ± 0.15
L48: T -0.184 ± 0.12, R -0.07 ± 0.071, G -0.544 ± 0.085, Y -0.056 ± 0.14, Q -0.479 ± 0.15, I 0.063 ± 0.15, S -0.258 ± 0.086, H -0.335 ± 0.18, N -0.166 ± 0.2, F 0.146 ± 0.13, E -0.784 ± 0.14, K -0.055 ± 0.11, W 0.028 ± 0.094, V -0.068 ± 0.079, P -0.886 ± 0.17, D -0.761 ± 0.22, M -0.111 ± 0.12
Y53: V -0.343 ± 0.089, F -0.208 ± 0.15, C 0.034 ± 0.1, D -0.834 ± 0.18, W -0.255 ± 0.11, G -0.601 ± 0.086, I -0.239 ± 0.28, P -0.726 ± 0.17, S -0.426 ± 0.1, A 0.043 ± 0.093, H -0.26 ± 0.2, T -0.11 ± 0.12, L -0.155 ± 0.086, K 0.085 ± 0.14, M 0.12 ± 0.15, R -0.068 ± 0.078, Q -0.224 ± 0.14, N -0.54 ± 0.25, E -0.711 ± 0.2
S51: L -0.867 ± 0.17, A -0.029 ± 0.089, F -0.942 ± 0.2, W -0.877 ± 0.17, I -0.751 ± 0.31, V -0.181 ± 0.095, K -0.09 ± 0.15, Y -0.927 ± 0.28, P -0.235 ± 0.12, T -0.312 ± 0.14, G -0.87 ± 0.12, H -0.517 ± 0.22, N -0.506 ± 0.19, Q -0.452 ± 0.14, C -0.504 ± 0.14, R -0.053 ± 0.093, E -1.02 ± 0.23
P50: M -0.799 ± 0.22, T -0.773 ± 0.19, Y -0.932 ± 0.27, H -0.973 ± 0.3, D -0.507 ± 0.19, F -0.459 ± 0.2, N -0.71 ± 0.25, I -0.671 ± 0.35, R -0.323 ± 0.087, E -0.847 ± 0.25, V -0.929 ± 0.18, K -0.547 ± 0.21, C -0.615 ± 0.19, S -0.954 ± 0.14, W -0.713 ± 0.14, L -0.873 ± 0.14, Q -1.06 ± 0.26
G47: V -0.796 ± 0.11, R -0.786 ± 0.098, P -0.867 ± 0.18, Y -0.908 ± 0.25, Q -0.6 ± 0.24, W -0.802 ± 0.16, S -0.828 ± 0.12, T -0.941 ± 0.18
F49: T -0.861 ± 0.18, Y -0.782 ± 0.28, P -0.814 ± 0.18, I -0.184 ± 0.13, R -0.862 ± 0.09, A -0.743 ± 0.11, M -0.725 ± 0.12, W -0.76 ± 0.096, V -0.391 ± 0.078, E -0.816 ± 0.11, C -0.871 ± 0.21, S -0.817 ± 0.12, D -0.485 ± 0.19, Q -0.661 ± 0.15, K -0.84 ± 0.14, G -0.829 ± 0.069, N -0.431 ± 0.21, L -0.527 ± 0.088
